Source: publication PMC7921410, “Structure of mammalian Mediator complex reveals Tail module architecture and interaction with a conserved core” (Nature Communications, 2021)

T1: MED17 (mouse (Mus musculus; endogenous in CH12), UniProt Q8VCD5 1-649)
T1 construct: MED17, Mus musculus, endogenous Head module scaffold subunit of Mediator; source: endogenous, CH12 mouse B lymphoma nuclear extract; immunopurified as part of Mediator (FLAG M2 agarose, FLAG peptide elution)
T1 sequence (looked up): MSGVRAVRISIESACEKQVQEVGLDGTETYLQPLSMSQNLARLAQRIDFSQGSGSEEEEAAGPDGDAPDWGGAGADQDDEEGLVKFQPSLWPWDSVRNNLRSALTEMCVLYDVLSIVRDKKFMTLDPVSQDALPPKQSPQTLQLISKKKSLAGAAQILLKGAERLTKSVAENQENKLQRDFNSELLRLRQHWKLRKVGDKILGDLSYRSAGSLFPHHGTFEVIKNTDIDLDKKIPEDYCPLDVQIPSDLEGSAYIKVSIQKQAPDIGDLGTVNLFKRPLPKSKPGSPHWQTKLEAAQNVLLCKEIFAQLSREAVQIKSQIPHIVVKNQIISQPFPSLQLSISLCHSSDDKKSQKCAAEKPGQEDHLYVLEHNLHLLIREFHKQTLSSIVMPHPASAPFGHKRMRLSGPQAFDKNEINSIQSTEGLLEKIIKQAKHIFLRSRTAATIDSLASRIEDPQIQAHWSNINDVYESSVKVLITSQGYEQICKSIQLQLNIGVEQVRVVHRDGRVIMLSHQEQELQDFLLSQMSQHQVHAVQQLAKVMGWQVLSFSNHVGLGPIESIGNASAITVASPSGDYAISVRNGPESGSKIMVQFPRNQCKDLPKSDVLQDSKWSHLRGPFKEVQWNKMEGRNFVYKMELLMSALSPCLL

T2: MED27 (mouse (Mus musculus; endogenous in CH12), UniProt Q9DB40 1-311)
T2 construct: MED27, Mus musculus, endogenous upper Tail subunit of Mediator; source: endogenous, CH12 mouse B lymphoma nuclear extract; immunopurified as part of Mediator (FLAG M2 agarose, FLAG peptide elution)
T2 sequence (looked up): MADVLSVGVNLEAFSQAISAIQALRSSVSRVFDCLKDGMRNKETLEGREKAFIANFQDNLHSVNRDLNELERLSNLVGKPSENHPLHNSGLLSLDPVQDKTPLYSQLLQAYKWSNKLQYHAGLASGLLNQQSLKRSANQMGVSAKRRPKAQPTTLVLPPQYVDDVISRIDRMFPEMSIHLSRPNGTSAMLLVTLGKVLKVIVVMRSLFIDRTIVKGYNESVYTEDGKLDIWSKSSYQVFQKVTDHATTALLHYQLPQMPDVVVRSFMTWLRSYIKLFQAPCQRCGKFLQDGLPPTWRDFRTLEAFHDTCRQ

B1: MED22 (natural protein, mouse (Mus musculus; endogenous in CH12), UniProt Q62276 1-200, looked up)
chain: MAQQRALPQSKETLLQSYNKRLKDDIKSIMDNFTEIIKTAKIEDETQVSRATQGEQDNYEMHVRAANIVRAGESLMKLVSDLKQFLILNDFPSVNEAIDQRNQQLRALQEECDRKLITLRDEVSIDLYELEEEYYSSSSSLCEANDLPLCEAYWRLDLDADSADGLSAPLLASPETGAGPLQSAAPVHSHGGGPGPTEHT
notes: MED22, Mus musculus, endogenous Head module subunit of Mediator; source: endogenous, CH12 mouse B lymphoma nuclear extract; immunopurified as part of Mediator (FLAG M2 agarose, FLAG peptide elution)
B2: MED20 (natural protein, mouse (Mus musculus; endogenous in CH12), UniProt Q9R0X0 1-212, looked up)
chain: MGVTCVSQMPVAEGKSLQQTVELLTKKLEMLGAEKQGTFCVDCETYHTAASTLGSQGQAGKLMYVMHNSEYPLSCFALFENGPCLIADTNFDVLMVKLKGFFQSAKASKIETRGTRYQYCDFLVKVGTVTMGPSARGISVEVEYGPCVVASDCWSLLLEFLQSFLGSHAPGAPTVFGNRHDAVYGPADTMIQYMELFNKIRKQQQVPVAGIR
notes: MED20, Mus musculus, endogenous Head module subunit of Mediator; source: endogenous, CH12 mouse B lymphoma nuclear extract; immunopurified as part of Mediator (FLAG M2 agarose, FLAG peptide elution)

Key:
MED17 = target: T1, MED17; test: cryo-EM structure; endogenous mouse Mediator immunopurified from CH12 nuclear extract through 3×FLAG-MED19 or 3×FLAG-MED25; eluted in 50 mM HEPES pH 7.9, 100 mM KCl, 5% glycerol, 1 mM EDTA, 0.005% NP-40; map at 4.0 Å overall, focused refinement of the MED1 and knob/hook ends (6-10 Å); conditions: both partners purified
MED27 = target: T2, MED27; test: as above; conditions: both partners purified

Row | Binder | binding result (MED17) | binding result (MED27)
1 | B1 | binds | 
2 | B2 | binds | binds
